Where two headings read alike, the source gives them in different places.

For test [1], the target named is T1, human FcgRIIb (human).
T1 chain: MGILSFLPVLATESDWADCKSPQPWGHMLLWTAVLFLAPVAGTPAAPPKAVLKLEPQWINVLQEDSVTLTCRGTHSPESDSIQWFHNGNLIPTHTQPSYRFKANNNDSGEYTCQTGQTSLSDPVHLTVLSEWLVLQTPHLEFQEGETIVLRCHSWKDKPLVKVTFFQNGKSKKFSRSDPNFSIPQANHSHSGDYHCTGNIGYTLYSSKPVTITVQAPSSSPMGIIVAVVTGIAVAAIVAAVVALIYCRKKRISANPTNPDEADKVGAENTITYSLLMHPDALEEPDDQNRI
The test can be described thus: SPR. (In general: SPR reads the build-up and loss of mass on a sensor chip optically.)

Test [2] concerns the target T2, human FcgRIIa(R) (human).
T2 chain: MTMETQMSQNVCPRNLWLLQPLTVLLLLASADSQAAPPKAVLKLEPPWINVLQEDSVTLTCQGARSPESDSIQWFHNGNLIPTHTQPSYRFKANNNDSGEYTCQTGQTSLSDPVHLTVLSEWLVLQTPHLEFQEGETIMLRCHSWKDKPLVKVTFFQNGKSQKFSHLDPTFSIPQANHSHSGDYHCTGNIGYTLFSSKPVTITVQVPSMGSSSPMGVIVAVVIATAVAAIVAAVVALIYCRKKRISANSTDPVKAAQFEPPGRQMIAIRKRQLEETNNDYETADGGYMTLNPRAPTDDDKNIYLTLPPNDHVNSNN
The test can be described thus: SPR.

Test [3] concerns the target T1, human FcgRIIb. Kind of test: SPR.
Test [4] concerns the target T2, human FcgRIIa(R). The test can be described thus: SPR.
For test [5], the target named is human FcgRIa (human). Kind of test: SPR.
In test [6] the target is human FcgRIa (human). Kind of test: SPR. This is another data set of the same source.
Test [7] concerns the target T3, human FcgRIIa(H) (human).
T3 chain: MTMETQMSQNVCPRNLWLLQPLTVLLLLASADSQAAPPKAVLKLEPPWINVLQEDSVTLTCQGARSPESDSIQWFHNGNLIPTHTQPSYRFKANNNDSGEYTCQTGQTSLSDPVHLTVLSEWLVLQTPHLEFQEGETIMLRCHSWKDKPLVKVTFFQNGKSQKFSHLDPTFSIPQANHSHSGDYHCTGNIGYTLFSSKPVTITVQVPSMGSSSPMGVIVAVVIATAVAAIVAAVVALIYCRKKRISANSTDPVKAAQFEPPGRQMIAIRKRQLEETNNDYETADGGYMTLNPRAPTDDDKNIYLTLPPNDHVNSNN
Kind of test: SPR.

Test [8] concerns the target T1, human FcgRIIb. Kind of test: SPR.
Test [9] has as its target T2, human FcgRIIa(R). The test can be described thus: SPR.
Test [10] concerns the target human FcgRIa (human). Kind of test: SPR. The source holds these as a separate data set.
Test [11] has as its target human FcRn (with beta2-microglobulin) (human). Kind of test: SPR, pH 7.0.
Test [12] has the same target. Kind of test: SPR, pH 7.0. This is another data set of the same source.
Test [13] shares this target. Kind of test: SPR, pH 7.0. This is another data set of the same source.
For test [14] the target is unchanged. Kind of test: SPR, neutral pH.
Test [15] has the same target. The test can be described thus: SPR, pH 7.0. This is another data set of the same source.
The target of test [16] is T4, mouse FcRn (mouse, UniProt Q61559).
T4 chain 1: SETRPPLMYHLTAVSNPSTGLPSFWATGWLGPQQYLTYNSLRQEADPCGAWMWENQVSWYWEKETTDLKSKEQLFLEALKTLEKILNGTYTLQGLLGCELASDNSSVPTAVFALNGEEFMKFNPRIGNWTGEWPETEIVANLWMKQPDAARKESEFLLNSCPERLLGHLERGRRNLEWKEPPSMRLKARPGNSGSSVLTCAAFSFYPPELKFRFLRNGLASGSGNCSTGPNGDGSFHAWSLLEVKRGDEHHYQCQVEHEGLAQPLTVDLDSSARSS
T4 chain 2: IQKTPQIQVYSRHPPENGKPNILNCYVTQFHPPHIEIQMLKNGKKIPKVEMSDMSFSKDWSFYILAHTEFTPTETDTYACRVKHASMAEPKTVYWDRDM
The test can be described thus: SPR, pH 7.0.

human FcgRIa (human), sequence (chain, as listed by the source): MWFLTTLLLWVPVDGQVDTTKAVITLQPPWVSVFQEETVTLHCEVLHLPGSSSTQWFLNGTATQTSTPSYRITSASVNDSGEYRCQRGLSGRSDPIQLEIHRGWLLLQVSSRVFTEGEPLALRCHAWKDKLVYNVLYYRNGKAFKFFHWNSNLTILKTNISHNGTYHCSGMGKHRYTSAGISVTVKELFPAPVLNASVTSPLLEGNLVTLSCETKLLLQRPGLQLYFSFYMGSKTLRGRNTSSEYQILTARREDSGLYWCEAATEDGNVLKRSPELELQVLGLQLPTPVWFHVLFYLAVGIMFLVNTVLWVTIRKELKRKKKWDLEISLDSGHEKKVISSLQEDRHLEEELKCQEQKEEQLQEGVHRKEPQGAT
human FcRn (with beta2-microglobulin) (human), sequence (chain, as listed by the source, chain 1 of 2): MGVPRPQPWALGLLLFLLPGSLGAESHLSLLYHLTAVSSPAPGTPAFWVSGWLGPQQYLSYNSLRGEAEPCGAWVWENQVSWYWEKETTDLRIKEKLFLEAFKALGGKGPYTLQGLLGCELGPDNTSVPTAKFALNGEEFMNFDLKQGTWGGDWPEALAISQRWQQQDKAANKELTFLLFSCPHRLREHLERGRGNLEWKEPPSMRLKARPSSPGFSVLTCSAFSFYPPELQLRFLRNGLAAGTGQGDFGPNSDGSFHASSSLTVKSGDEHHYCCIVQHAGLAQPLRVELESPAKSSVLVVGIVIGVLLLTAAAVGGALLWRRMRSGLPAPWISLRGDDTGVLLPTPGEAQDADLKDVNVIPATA
human FcRn (with beta2-microglobulin) (human), sequence (chain, as listed by the source, chain 2 of 2): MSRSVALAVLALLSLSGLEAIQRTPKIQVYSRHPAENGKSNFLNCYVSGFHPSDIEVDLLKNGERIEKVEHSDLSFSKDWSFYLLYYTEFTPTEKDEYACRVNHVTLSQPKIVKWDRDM

B1: IL6R-BF648 (antibody)
chain 1: not shown
chain 2: DIQMTQSPSSLSASVGDRVTITCRASQDISSYLNWYQQKPGKAPKLLIYYTSRLHSGVPSRFSGSGSGTDFTFTISSLQPEDIATYYCQQGNTLPYTFGQGTKVEIK
As to B1, the Kd (as a rule, a measure of binding affinity in units of concentration) in test [1] stood at 1.2 µM; in [2], 15 µM; in test [3] it was 1.2 µM; in test [4] it was 15 µM; in test [5], 0.011 µM; in [6], 0.011 µM.

B2: IL6R-F11/IL6R-L (antibody)
chain 1: not shown
chain 2: DIQMTQSPSSLSASVGDRVTITCRASQDISSYLNWYQQKPGKAPKLLIYYTSRLHSGVPSRFSGSGSGTDFTFTISSLQPEDIATYYCQQGNTLPYTFGQGTKVEIK
In the case of B2, the Kd in test [7] stood at 5 µM; in [8], 6.8 µM; in [9], 5 µM; in test [10], 0.0009 µM.

B3: IgG1-F140 (antibody)
chain 1: QVQLQESGPGLVKPSETLSLTCAVSGHSISHDHAWSWVRQPPGEGLEWIGFISYSGITNYNPSLQGRVTISRDNSKNTLYLQMNSLRAEDTAVYYCARSLARTTAMDYWGEGTLVTVSSASTKGPSVFPLAPSSKSTSGGTAALGCLVKDYFPEPVTVSWNSGALTSGVHTFPAVLQSSGLYSLSSVVTVPSSSLGTQTYICNVNHKPSNTKVDKKVEPKSCDKTHTCPPCPAPELLGGPKVFLFPPKPKDTLYISRTPEVTCVVVDVSHEDPEVKFNWYVDGVEVHNAKTKPREEQYNSTYRVVSVLTPLHQDWLNGKEYKCKVSNKALPAPIEKTISKAKGQPREPQVYTLPPSRDELTKNQVSLTCLVKGFYPSDIAVEWESNGQPENNYKTTPPVLDSDGSFFLYSKLTVDKSRWQQGNVFSCSVMHEALHYHYTQKSLSLSP
chain 2: not shown
For B3, the Kd in test [11] and in test [12] was 0.036 µM throughout.

B4: IgG1-F763 (antibody)
chain 1: QVQLQESGPGLVKPSETLSLTCAVSGHSISHDHAWSWVRQPPGEGLEWIGFISYSGITNYNPSLQGRVTISRDNSKNTLYLQMNSLRAEDTAVYYCARSLARTTAMDYWGEGTLVTVSSASTKGPSVFPLAPSSKSTSGGTAALGCLVKDYFPEPVTVSWNSGALTSGVHTFPAVLQSSGLYSLSSVVTVPSSSLGTQTYICNVNHKPSNTKVDKKVEPKSCDKTHTCPPCPAPELRGGPKVFLFPPKPKDTLYISRTPEVTCVVVDVSHEDPEVKFNWYVDGVEVHEAKTKPREEQYNSTYRVVSVLQVLHADWLNGKEYKCKVSNKALPAPIEKTISKAKGQPREPQVYTLPPSRDELTKNQVSLTCLVKGFYPSDIAVEWESNGQPENNYKTTPPVLDSDGSFFLYSKLTVDKSRWQQGNVFSCSVMHEALHYHYTQKSLSLSP
chain 2: not shown
The molecule B4 came in with a Kd in test [13] of 0.035 µM.

B5: IgG1-F21 (antibody)
chain 1: QVQLQESGPGLVKPSETLSLTCAVSGHSISHDHAWSWVRQPPGEGLEWIGFISYSGITNYNPSLQGRVTISRDNSKNTLYLQMNSLRAEDTAVYYCARSLARTTAMDYWGEGTLVTVSSASTKGPSVFPLAPSSKSTSGGTAALGCLVKDYFPEPVTVSWNSGALTSGVHTFPAVLQSSGLYSLSSVVTVPSSSLGTQTYICNVNHKPSNTKVDKKVEPKSCDKTHTCPPCPAPELLGGPSVFLFPPKPKDTLYISRTPEVTCVVVDVSHEDPEVKFNWYVDGVEVHNAKTKPREEQYNSTYRVVSVLTPLHQDWLNGKEYKCKVSNKALPAPIEKTISKAKGQPREPQVYTLPPSRDELTKNQVSLTCLVKGFYPSDIAVEWESNGQPENNYKTTPPVLDSDGSFFLYSKLTVDKSRWQQGNVFSCSVMHEALHYHYTQKSLSLSP
chain 2: not shown
As to B5, the Kd in [11], in test [12] and in [14] was 0.03 µM each time.

B6: IgG1-F699 (antibody)
chain 1: QVQLQESGPGLVKPSETLSLTCAVSGHSISHDHAWSWVRQPPGEGLEWIGFISYSGITNYNPSLQGRVTISRDNSKNTLYLQMNSLRAEDTAVYYCARSLARTTAMDYWGEGTLVTVSSASTKGPSVFPLAPSSKSTSGGTAALGCLVKDYFPEPVTVSWNSGALTSGVHTFPAVLQSSGLYSLSSVVTVPSSSLGTQTYICNVNHKPSNTKVDKKVEPKSCDKTHTCPPCPAPELLGGPKVFLFPPKPKDTLYISRTPEVTCVVVDVSHEDPEVKFNWYVDGVEVHEAKTKPREEQYNSTYRVVSVLQVLHADWLNGKEYKCKVSNKALPAPIEKTISKAKGQPREPQVYTLPPSRDELTKNQVSLTCLVKGFYPSDIAVEWESNGQPENNYKTTPPVLDSDGSFFLYSKLTVDKSRWQQGNVFSCSVMHEALHYHYTQKSLSLSP
chain 2: not shown
Consider B6, for which the Kd in [15] stood at 0.023 µM.

B7: mF40 (antibody)
chain 1: DVQLQESGPVLVKPSQSLSLTCTVTGYSITSDHAWSWIRQFPGNKLEWMGYISYSGITTYNPSLKSRISITRDTSKNQFFLQLNSVTTGDTSTYYCARSLARTTAMDYWGQGTSVTVSSAKTTPPSVYPLAPGSAAQTNSMVTLGCLVKGYFPEPVTVTWNSGSLSSGVHTFPAVLQSDLYTLSSSVTVPSSTWPSETVTCNVAHPASSTKVDKKIVPRDCGCKPCICTVKEVSKVFIFPPKPKDVLYITLEPKVTCVVVDISKDDPEVQFSWFVDDVEVHTAQTQPREEQFNSTFRSVSELPIMHQDWLNGKEFKCRVNSAAFPAPIEKTISKTKGRPKAPQVYTIPPPKEQMAKDKVSLTCMITDFFPEDITVEWQWNGQPAENYKNTQPIMDTDGSYFVYSKLNVQKSNWEAGNTFTCSVLHEGLHWHHTEKSLSHSPGK
chain 2: not shown
The molecule B7 showed a Kd in test [16] of 0.0032 µM. This counts as single-digit nanomolar.

B8: mF39 (antibody)
chain 1: DVQLQESGPVLVKPSQSLSLTCTVTGYSITSDHAWSWIRQFPGNKLEWMGYISYSGITTYNPSLKSRISITRDTSKNQFFLQLNSVTTGDTSTYYCARSLARTTAMDYWGQGTSVTVSSAKTTPPSVYPLAPGSAAQTNSMVTLGCLVKGYFPEPVTVTWNSGSLSSGVHTFPAVLQSDLYTLSSSVTVPSSTWPSETVTCNVAHPASSTKVDKKIVPRDCGCKPCICTVKEVSKVFIFPPKPKDVLYITLEPKVTCVVVDISKDDPEVQFSWFVDDVEVHTAQTQPREEQFNSTFRSVSELPIMHQDWLNGKEFKCRVNSAAFPAPIEKTISKTKGRPKAPQVYTIPPPKEQMAKDKVSLTCMITDFFPEDITVEWQWNGQPAENYKNTQPIMDTDGSYFVYSKLNVQKSNWEAGNTFTCSVLHEGLKNHHTEKSLSHSPGK
chain 2: not shown
For the molecule B8, the Kd in test [16] turned out to be 0.021 µM.

B9: mF38 (antibody)
chain 1: DVQLQESGPVLVKPSQSLSLTCTVTGYSITSDHAWSWIRQFPGNKLEWMGYISYSGITTYNPSLKSRISITRDTSKNQFFLQLNSVTTGDTSTYYCARSLARTTAMDYWGQGTSVTVSSAKTTPPSVYPLAPGSAAQTNSMVTLGCLVKGYFPEPVTVTWNSGSLSSGVHTFPAVLQSDLYTLSSSVTVPSSTWPSETVTCNVAHPASSTKVDKKIVPRDCGCKPCICTVPEVSSVFIFPPKPKDVLYITLEPKVTCVVVDISKDDPEVQFSWFVDDVEVHTAQTQPREEQFNSTFRSVSELPIMHQDWLNGKEFKCRVNSAAFPAPIEKTISKTKGRPKAPQVYTIPPPKEQMAKDKVSLTCMITDFFPEDITVEWQWNGQPAENYKNTQPIMDTDGSYFVYSKLNVQKSNWEAGNTFTCSVLHEGLHWHHTEKSLSHSPGK
chain 2: not shown
For B9, in test [16], the dissociation constant Kd was 0.004 µM. Compared with the last molecule, the Kd is about 5.2-fold lower.
